The source of these data is patent US20240024499A1.

The assay addresses glypican-3 (GPC3) on GPC3-positive liver cancer cell lines HepG2-C3A and Hep3B (human) (UniProt P51654). In words: flow cytometry on GPC3-positive HepG2-C3A and Hep3B cells, anti-hIgG-AF488 detection. Background: A flow cytometer gives signals particle by particle.

glypican-3 (GPC3) on GPC3-positive liver cancer cell lines HepG2-C3A and Hep3B (human), sequence (P51654 25-580): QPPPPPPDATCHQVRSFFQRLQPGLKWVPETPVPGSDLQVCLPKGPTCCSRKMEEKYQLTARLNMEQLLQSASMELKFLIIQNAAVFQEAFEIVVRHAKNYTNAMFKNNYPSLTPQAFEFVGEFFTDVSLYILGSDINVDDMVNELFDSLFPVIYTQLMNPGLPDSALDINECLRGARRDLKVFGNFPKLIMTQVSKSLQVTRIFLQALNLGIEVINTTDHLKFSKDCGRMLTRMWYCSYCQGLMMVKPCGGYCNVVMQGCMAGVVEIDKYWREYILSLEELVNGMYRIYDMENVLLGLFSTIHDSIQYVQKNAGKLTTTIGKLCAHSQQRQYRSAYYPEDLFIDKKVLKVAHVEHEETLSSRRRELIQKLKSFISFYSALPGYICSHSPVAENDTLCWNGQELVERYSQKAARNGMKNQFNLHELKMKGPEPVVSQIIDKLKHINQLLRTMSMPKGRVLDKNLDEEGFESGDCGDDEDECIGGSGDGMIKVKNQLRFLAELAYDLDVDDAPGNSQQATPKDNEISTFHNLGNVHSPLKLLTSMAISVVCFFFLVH

B1: ARD103 antibody (antibody, human IgG1, kappa, V domains shown)
VH: QVQLVESGAEVKKPGASVKVSCKASGYTFTDYEMHWVRQAPGQGLEWMGALDPKTGDTAYSQKFKGRVTLTADKSTSTAYMELSSLTSEDTAVYYCTRFYSYTYWGQGTLVTVSS
VL: DVVMTQSPLSLPVTPGEPASISCRSSQSLVHSNGNTYLHWYLQKPGQSPQLLIYKVSNRFSGVPDRFSGSGSGTDFTLKISRVEAEDVGVYYCSQNTHVPPTFGQGTKLEIKR
For B1, the EC50 (as a rule, the midpoint of the concentration-response curve) was 3.5 to 4 nM.
